Consider one substance from publication PMC6538526.

The target in assay [1] is GST-BRCA2 fragment B2-9 (amino acids 3189–3418) (UniProt P51587). As to the kind of experiment: pull-down.
Assay [2] shares this target. As to the kind of experiment: pull-down. The source holds these as a separate data set.

pIC50: −log10 of the molar value. Read-outs that look alike come from different tables or passages of the source.

Chain of UniProt P51587 (P51587 3189-3418): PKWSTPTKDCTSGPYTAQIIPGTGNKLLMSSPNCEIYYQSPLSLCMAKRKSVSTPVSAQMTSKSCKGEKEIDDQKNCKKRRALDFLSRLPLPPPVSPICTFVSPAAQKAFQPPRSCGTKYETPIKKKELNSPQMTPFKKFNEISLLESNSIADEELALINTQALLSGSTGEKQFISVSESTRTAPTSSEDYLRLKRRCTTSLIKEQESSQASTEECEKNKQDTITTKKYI

As usually defined, the pIC50 is the IC50 on a negative log10 scale, so that one unit is a factor of ten. Low values mean a large IC50, high ones a small IC50. Take “purified cyclin A (from UniProt P20248 1-432) (natural protein)”: the negative logarithm of the IC50 (pIC50) in assay [1] was 7.53; in assay [2], 7.55.
